In the supplement of paper PMC12042874:
± gives the uncertainty stated by the source.

Assay: amyloid nucleation score (Sup35N fusion, yeast selection) (log enrichment); library NNK2; higher = more nucleation; inactive = no reads after selection
Method in brief: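 The nucleation score is the DiMSum log enrichment of output over input reads, centred on the mode score of non-aggregating sequences. Only sequences with 100 or more input reads were scored, using Illumina sequencing of input and output plasmid inserts. Psi-negative yeast expressing Sup35N fused to peptides of 20 random codons were induced 24 hours with 100 μM copper sulfate and grown 7 days at 30°C on medium lacking adenine and uracil.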

Substance | amyloid nucleation score
LLYTTCSFGYLMQKFVL | 1.58 ± 0.31
LMAFCKLQDRNKTPLSSALF | inactive
LMAHTSFVDFGVKN | -0.266 ± 0.23
LMASCHKQRTCRWHPRDRRY | 0.298 ± 0.46
LMCVLTIL | 1.25 ± 0.32
LMFARTMRSVRRFFYVGFHH | inactive
LMGIEVDGYYGCRCLTP | 0.236 ± 1.1
LMGIILF | -1.49 ± 0.78
LMIAFKQRFIPS | 1.12 ± 0.4
LMIGSEDAMNYGCSCNPYLF | -1.04 ± 0.33
LMKSIVGFMNESPLVIEFGR | -0.402 ± 0.27
LMLFDVKGRICGFDLCLIRR | 0.381 ± 0.62
LMNGVGLFNQMGWVVERYLE | -0.357 ± 0.4
LMNLVVG | -0.701 ± 0.44
LMQVSA | 0.829 ± 0.41
LMYTFVGCSINVCFGGSGCL | 8.873 ± 0.034
LNFIGFK | 0.102 ± 0.74
LNGLLTIRADVASKSIRLMH | 0.004 ± 0.51
LNGYNYATCVLSPFFNE | -0.497 ± 0.76
LNLGREYVGLKD | 0.246 ± 0.24
LNLLADNTLYGDSSYVGYLR | 0.021 ± 0.4
LNLLDGWFL | -0.7 ± 0.48
LNMRT | -0.443 ± 0.64
LNMTSFAVKLEANYL | -0.565 ± 1.1
LNNHTPDLVWRSSVIGRCQK | 0.47 ± 0.48

Substance | amyloid nucleation score
LNNYSSGFRGMIVFFVVVYV | -1.06 ± 0.61
LNQCWRI | inactive
LNRVGPLVILPIRHLQSTSL | 0.65 ± 0.23
LNSDVVFIVPRYHNWFRSLR | inactive
LNSMF | 0.056 ± 0.31
LNSQSVFKC | -0.967 ± 0.55
LNSYRPWCWY | inactive
LNTKTCVIPSTTCVTIPERE | 0.242 ± 0.17
LNTLSESLEKNSGTLCWAKR | inactive
LNTSFLMV | -1.05 ± 0.49
LNVITSVTLRVDWRAVWRKY | 0.134 ± 0.53
LPGLIGS | 1.96 ± 0.26
LPGMNTIILD | 2.17 ± 0.081
LPSVDQTATS | -0.481 ± 0.35
LPVREALMRKWMVQLLVFVS | 2.05 ± 0.1
LPYHCNWHMLSYLTCGYCS | 0.711 ± 0.6
LQAVPIIANCSSTRTANISL | inactive
LQSSKVWDFMLGLGVSGRVE | 1.55 ± 0.14
LQVLSFSLWFMVRCMKLLPT | -0.286 ± 0.65
LQVVKKSNA | 3.61 ± 0.061
LRDIYNFGDSHYFRNYSVTE | -0.132 ± 0.31
LRDKCAPCKCSRGSPLTSIC | -0.489 ± 0.63
LRDLLLVRTSSCDSYMWLSP | -0.254 ± 1
LRFLLPPTMTVGMKFSSDAG | 0.062 ± 0.79
LRFNDFA | inactive

Substance | amyloid nucleation score
LRGLCRVHWRSERAQSMRPG | 0.892 ± 0.45
LRGYRGFPYCDLYFVCMLRN | -1.06 ± 1.1
LRLDLRMPQRYRLGDTFVSS | 0.243 ± 0.24
LRLIDNYMGSSRMMS | inactive
LRMYCRVTWSISYVSSSPVL | 2.83 ± 0.087
LRNVRMYDLSLWSRGTRCEG | 0.88 ± 0.28
LRSCKALGGGVTRPTGYS | 0.709 ± 0.47
LRSCRMSDDMK | 1.18 ± 0.34
LRSDESRYPAFHRESSVRSR | 0.377 ± 0.3
LRTIEASLMGVSNLKKWSFI | -0.299 ± 0.48
LRTVDVAR | -0.654 ± 0.55
LRVGSRKVRVWSLVSFCLVV | -0.271 ± 0.42
LRVRGRFLNSWSASPRSSDY | 3.58 ± 0.053
LSCSILRPVWLYISLIVIID | -1.28 ± 0.48
LSDRRFKDLMSTFRNAATYF | 6.34 ± 0.047
LSFKRDELVNLNRFSVQFAQ | -0.694 ± 0.38
LSGKT | 0.312 ± 0.54
LSGWDVHTSSTSVFRNNFIY | inactive
LSHKSVRAKENPIQSSQCES | 1.2 ± 0.33
LSHLISVVRRVRKYSYGEVV | 0.389 ± 0.64
LSHSDVKRALKWNCFPIGVC | -0.158 ± 0.28
LSIAYFSSAWCFYL | 6.216 ± 0.038
LSIGSQAI | 0.501 ± 0.38
LSIRYLVYEPN | 0.27 ± 0.36
LSKGTPSQSMMSSLLSINTL | -0.159 ± 1

Substance | amyloid nucleation score
LSKLYTLVRNV | -0.576 ± 0.63
LSLFHPCLL | -0.182 ± 0.3
LSLLRFLNCMRYCLCIGLAS | 4.14 ± 0.093
LSMDRESFINERWSSQRVMV | -0.02 ± 0.5
LSMQKCSLIIISRCGRSRNM | 3.77 ± 0.057
LSNLWSSSF | inactive
LSRLN | -0.055 ± 0.53
LSRNTYWYGVEIGLVLSSCT | 0.161 ± 0.24
LSRQGRLESVKDGRSMWVSG | -0.283 ± 1.1
LSRRAINHFYNIITEVAGRG | inactive
LSSGIMSGCEGGAWCCH | 0.605 ± 0.66
LSSPDVPNIHAALRTRTGWA | -0.328 ± 0.27
LSSPLNLQHVFPLTWMYLC | -0.742 ± 1.1
LSSVMN | -0.565 ± 0.33
LSVCGSWDRRRFGGYDLWCT | 0.903 ± 0.48
LSVCVRHEDGGSIAVECGS | 0.242 ± 0.77
LSWITPIKIGISFSLALIFT | -0.974 ± 0.49
LSWRFFLSCWN | inactive
LSWYLTYTRLTSLVG | -0.097 ± 0.42
LSYRTCYRNMP | 0.328 ± 0.46
LTACEQSWLKILLLMEMQTL | -0.137 ± 0.54
LTFVCVV | 0.048 ± 0.33
LTIPEMNQGLQLSLSIHAQM | -0.902 ± 0.63
LTIYRSHDVRM | 3.88 ± 0.043
LTKVWLPCAFVVSSFDQYQH | 0.764 ± 0.41

Substance | amyloid nucleation score
LTLYSGVRCFSSYLP | 0.012 ± 0.41
LTMQKWLF | 0.28 ± 0.62
LTSHLYIYGMW | -0.766 ± 0.48
LTSNTNSRMLRCSIMVQQS | -0.087 ± 0.45
LTSSRRF | 5.724 ± 0.037
LTVLFVLTVCFNVAMGCCLS | -0.223 ± 0.76
LTWICEFGRSFFSWICVMIG | 0.856 ± 0.14
LVCGHRPNVAAGTQGDCGRW | 1.04 ± 0.32
LVCSKSAGEWAYSRFGVLDL | -0.444 ± 0.44
LVDILLMMYWMWQ | 0.373 ± 0.45
LVFGVLQVCVLCSVTDNLGA | 0.159 ± 0.35
LVFRMQHSLTHGLLSEPGNR | 2.28 ± 0.17
LVGKFNWCEVQKKCSRFRCR | -0.29 ± 0.62
LVGLISRNKVVRTGIENNKD | -0.059 ± 0.55
LVHFVVSALKT | inactive
LVHMLCQ | 0.893 ± 0.24
LVILAGTVRIVRHGLVALQL | 0.592 ± 0.22
LVKCHANGCFPYLSTIFIRP | 0.156 ± 0.41
LVKMTLGCATSMLRCLMLSV | 0.457 ± 0.24
LVLIIK | 5.96 ± 0.075
LVMWNRCSIKRVNREMVHSF | 0.538 ± 0.3
LVNNGINPPFGPSSLSRGMK | -0.31 ± 0.4
LVQLMMMFWKRGLRDSANMV | -1.13 ± 0.78
LVREWHRKNSSGPRIVVRRQ | 4.18 ± 0.079
LVRPILLYYSMLV | inactive

Substance | amyloid nucleation score
LVSFKGKVLFFIS | 1.86 ± 0.13
LVSLVQRYLDHRPDNKM | -0.05 ± 0.48
LVSVVWTKCRRGQRGVLVAS | 1.06 ± 0.38
LVTLFESGFFRRLTSMDGLF | 0.115 ± 0.51
LVVLD | -0.262 ± 0.79
LVVLNYGVIHNMNSWPWRWG | 9.861 ± 0.047
LVVVMWR | 2.82 ± 0.19
LVVVPTTGRVADRQWVMRNG | 0.86 ± 0.2
LWCSDCISTEIIHNQRFA | -0.152 ± 1
LWIYRVAYFGFLNYKFSVFL | -1.09 ± 0.42
LWLADDSATRV | 0.814 ± 0.19
LWNVD | 2.94 ± 0.19
LWSRVVVWQDRYVV | inactive
LWTHGSYSVLRLIEPVGAQE | 0.971 ± 0.51
LYCRTPFCTMTLELMKMTL | 0.128 ± 0.24
LYDGSVRQWTDEHWWVMSGG | 0.988 ± 0.28
LYDVAQDEPLVSRMGLFDPR | 3.46 ± 0.069
LYEMDSKC | -0.603 ± 1.1
LYFRYWVMDSQASNFHRCRG | -0.14 ± 1
LYHEDRSVISRLVSSRLKCK | 0.389 ± 0.38
LYIMDLFSTAWFDMLYVKGR | -1.45 ± 0.78
LYKSGA | -0.574 ± 0.28
LYLTGNF | -0.199 ± 0.76
LYLWWILIYDHMAPKEW | -0.47 ± 0.63
LYNVVSNTVKYCIFPC | 7.135 ± 0.043

Substance | amyloid nucleation score
LYVRRYNWSHVGFHFCGLDT | -0.384 ± 0.79
LYVSFDYGAQRVHYSTAYVK | -0.013 ± 0.48
LYWKSGEHIWYLGSILGCVG | 0.593 ± 0.56
LYWRKTVITIEWSCSGGNLR | 0.278 ± 0.27
LYYMHNE | -0.652 ± 0.64
MAILVGSFDVDSNCVDSWGV | 0.027 ± 0.74
MASGRWYSNSTYGDCMGGIA | -0.321 ± 1
MAYWESTVIYYIDWEWDSLV | -1.16 ± 0.39
MCFSPCCRWPRIRQEDQG | 0.531 ± 0.64
MCLYVRLWFMSPVSLDSSAL | -0.512 ± 0.55
MCMLTLRLNQLYMAIMHG | 0.603 ± 0.36
MDHCTFYIRGMMPRMYGCTK | -0.711 ± 0.44
MDLCINNVWWEAKTSSLGLL | inactive
MDVMVDW | -0.343 ± 0.63
MDYNLIKCAPWT | inactive
MEQELMFREWLW | -0.284 ± 0.48
MFARDNRFPYCDDTRSDSSF | 0.178 ± 0.45
MFERW | -0.184 ± 0.56
MFMANGSWTYEEVIE | 1.47 ± 0.16
MFMTVRWNVAINLELFTVID | -0.34 ± 0.39
MFNVLIGVGRAGVNNPGHSL | 0.343 ± 0.64
MFNYINYYSYHFEFSKCFVR | 2.26 ± 0.14
MFVFRCVVRTCRSDHENDHS | 4.987 ± 0.049
MFYLS | -0.476 ± 0.37
